Data from patent publication US20220411519A1 (SHANGHAI NOVAMAB BIOPHARMACEUTICALS, published 2022).

What was measured:
[1] = molecular target: T1, human IL-4R on cells (293F/IL-4R cells; HEK293F cells with high IL-4Rα expression) (human, UniProt P24394 26-825); assay: flow cytometry competition: antibody titrated against 5 ug/mL IL-4-biotin on 293F/IL-4R cells, SA-PE
T1 construct: whole, on cells; also called IL-4Ra
Protocol: (1) A certain number of 293F/IL-4R cells that were transitioned for 48 h were centrifuged at 1000 rpm for 5 min, the supernatant was discarded, the cells were re-suspended and washed with PBS for once, and counted. The cells were divided into 96-well plates at 100 ul/well, and then centrifuged at 3000 rpm at 4° C. for 4 min. (2) The supernatant was aspirated, and the single-domain antibody with different sequences in gradient diluted in example 1 was added (two-fold gradient dilution starting from 40 ug/mL). 50 uL was added to each well, and then 50 uL of 5 ug/mL IL-4-biotin was added to mix, and incubated at 4° C. for 20 min. (3) Centrifugation was performed at 3000 rpm at 4° C. for 4 min, and the supernatant was discarded. 200 uL PBS was added to each well to wash the cells, and the supernatant was discarded by centrifugation again. Diluted SA-PE staining solution was added and incubated at 4° C. for 20 min. (4) Centrifugation was performed at 3000 rpm at 4° C. for 4 min, and the supernatant was discarded. 200 uL PBS was added to each well to wash the cells, and the supernatant was discarded by centrifugation again. 200 uL PBS was added to re-suspend the cells, and the PE signal of the samples was detected by flow cytometry.

[2] = molecular target: T1, human IL-4R on cells (293F/IL-4R cells; …); assay: flow cytometry blocking of IL-4/IL-4R on HEK293F cells with high IL-4Rα expression, SA-PE
Protocol: (§1) (1) HEK293F cells with high IL-4Rα expression were collected, centrifuged at 1000 rpm for 5 min, and the supernatant was discarded. The cells were re-suspended with 5 mL PBS and centrifuged at 1000 rpm for 5 min, and the supernatant was discarded. Then the cells were re-suspended with 2 mL PBS, and counted. The cells were divided into 96-well plates with 3×10⁵ cells per well. (2) Humanized antibody huNb103 (amino acid sequence refers to SEQ ID NO:16) and Dupilumab were diluted by 2-fold gradient dilution (40 ug/mL, 20 ug/mL, 10 ug/mL, 5 ug/mL, 2.5 ug/mL, 1.25 ug/mL, 0.625 ug/mL, 0.313 ug/mL, 0.156 ug/mL, 0.078 ug/mL). The cells in the 96-well plate were resuspended with the diluted antibody and incubated at 4° C. for 20 min. (3) Centrifugation was performed at 3000 rpm at 4° C. for 4 min, and 200 ul PBS was added to each well. After resuspension, centrifugation was performed at 3000 rpm at 4° C. for 4 min. (4) Diluted SA-PE staining solution (diluted at 0.3:100) was added and incubated at 4° C. for 20 min. (5) Centrifugation was performed at 3000 rpm at 4° C. for 4 min, and the supernatant was discarded, 200 uL PBS was added into each well to wash cells for two times, then 200 uL PBS was added again to re-suspend the cells. The cells were transferred to flow tube to detect PE signal of each sample via flow cytometry.

[3] = molecular target: T1, human IL-4R on cells (293F/IL-4R cells; …); assay: flow cytometry on HEK293F cells with high IL-4Rα expression, anti-human Fc-FITC
Protocol: as §1, with “per well;” for “per well.”, “Diluted anti-human Fc-FITC antibody” for “Diluted SA-PE staining solution”, “at 1:200)” for “at 0.3:100)”, “added” for “added again”, “detect FITC” for “detect PE”

[4] = molecular target: T1, human IL-4R on cells (293F/IL-4R cells; …); assay: cell-based or functional assay
[5] = molecular target: rhesus monkeys IL-4R (rhesus monkey, UniProt F6RUR0 26-232); assay: ELISA, coated IL-4R, same method as for FIG. 6
Protocol: (§2) ELISA was used to verify whether the candidate antibody could cross-react with IL-4R proteins of different species, and the method was as follows: (1) 1 ug/mL human IL-4R, mouse IL-4R and cynomolgus monkey IL-4R were added into the plate and coated overnight at 4° C. with 100 uL/well. (2) After washing with PBST for 5 times, 300 uL 1% BSA was added to each well and sealed for 2 hours at room temperature. (3) After washing with PBST for 5 times, 100 uL of 2 ug/mL antibody to be tested was added and incubated at 37° C. for 1 hour. (4) After washing with PBST for 5 times, 100 uL diluted anti-HA antibody (diluted at 1:2000) was added and incubated at 37° C. for 1 hour. (4) After washing with PBST for 5 times, 100 uL diluted anti-mouse IgG antibody (diluted at 1:2000) was added and incubated at 37° C. for 30 minutes. (5) After washing with PBST for 5 times, 100 uL PA chromogenic solution was added and developing at 37° C. for 10 minutes, and the absorption value was measured at 405 nm wavelength with a microplate reader. The results are shown in FIG. 6, the candidate antibody Nb103 can recognize the human IL-4R, but not mouse and cynomolgus monkey IL-4R.
ELISA was used again to verify whether the candidate antibody could cross-react with IL-4R protein of different monkey types. The detection method was the same as above. […]

[6] = molecular target: cynomolgus monkey IL-4R (cynomolgus monkey, UniProt A0A2K5V580 33-239); assay: ELISA, IL-4R coated at 1 ug/mL, anti-HA detection
Protocol: as §2

[7] = molecular target: T2, mouse IL-4R (mouse, UniProt P16382 26-233, limits assumed); assay: ELISA, IL-4R coated at 1 ug/mL, anti-HA detection
T2 sequence (looked up): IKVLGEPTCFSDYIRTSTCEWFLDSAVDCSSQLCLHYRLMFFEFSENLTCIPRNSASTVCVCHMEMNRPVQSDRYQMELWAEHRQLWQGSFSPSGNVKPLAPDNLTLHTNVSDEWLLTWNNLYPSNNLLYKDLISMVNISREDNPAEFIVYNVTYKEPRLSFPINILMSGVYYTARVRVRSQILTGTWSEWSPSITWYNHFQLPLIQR
Protocol: as §2

B1: Dupilumab (antibody, V domains shown)
VH: EVQLVESGGGLEQPGGSLRLSCAGSGFTFRDYAMTWVRQAPGKGLEWVSSISGSGGNTYYADSVKGRFTISRDNSKNTLYLQMNSLRAEDTAVYYCAKDRLSITIRPRYYGLDVWGQGTTVTVSS
VL: DIVMTQSPLSLPVTPGEPASISCRSSQSLLYSIGYNYLDWYLQKSGQSPQLLIYLGSNRASGVPDRFSGSGSGTDFTLKISRVEAEDVGFYYCMQALQTPYTFGQGTKLEIKR
[1]
  IC50: 0.511 µg/mL
[2]
  IC50: 1.13 µg/mL
[3]
  EC50: 0.36 µg/mL

B2: humanized tetravalent antibody tet-huNb103 (Fc fusion)
chain: EVQLVESGGGLVQPGGSLRLSCAASGSTSYRYCMAWFRQAPGKGLEAVASIRPRSGRAYYADSVKGRFTISRDNSKNTLYLQMNSLRAEDTAVYYCAASDNDGNCQDYWGKGTLVTVSSGGGGSGGGSEVQLVESGGGLVQPGGSLRLSCAASGSTSYRYCMAWFRQAPGKGLEAVASIRPRSGRAYYADSVKGRFTISRDNSKNTLYLQMNSLRAEDTAVYYCAASDNDGNCQDYWGKGTLVTVSSESKYGPPCPPCPAPEFLGGPSVFLFPPKPKDTLMISRTPEVTCVVVDVSQEDPEVQFNWYVDGVEVHNAKTKPREEQFNSTYRVVSVLTVLHQDWLNGKEYKCKVSNKGLPSSIEKTISKAKGQPREPQVYTLPPSEEMTKNQVSLTCLVKGFYPSDIAVEWESNGQPENNYKTTPPVLDSDGSFFLYSRLTVDKSRWQEGNVFSCSVMHEALHNHYTQKSLSLSLG
[4]
  inhibition of TF-1 cell proliferation induced by IL-4 (CCK8, OD450): 0.02 µg/mL
  inhibition of TF-1 cell proliferation induced by IL-13 (CCK8, OD450): 0.026 µg/mL

B3: humanized antibody huNb103 (humanized single-domain antibody fused with Fc) (Fc fusion)
chain: EVQLVESGGGLVQPGGSLRLSCAASGSTSYRYCMAWFRQAPGKGLEAVASIRPRSGRAYYADSVKGRFTISRDNSKNTLYLQMNSLRAEDTAVYYCAASDNDGNCQDYWGKGTLVTVSSESKYGPPCPPCPAPEFLGGPSVFLFPPKPKDTLMISRTPEVTCVVVDVSQEDPEVQFNWYVDGVEVHNAKTKPREEQFNSTYRVVSVLTVLHQDWLNGKEYKCKVSNKGLPSSIEKTISKAKGQPREPQVYTLPPSEEMTKNQVSLTCLVKGFYPSDIAVEWESNGQPENNYKTTPPVLDSDGSFFLYSRLTVDKSRWQEGNVFSCSVMHEALHNHYTQKSLSLSLG
notes: called bivalent, so two chains; expressed in HEK293F; also called humanized bivalent antibody; human bivalent antibody
[4]
  inhibition of TF-1 cell proliferation induced by IL-4 (CCK8, OD450): 0.032 µg/mL
  inhibition of TF-1 cell proliferation induced by IL-13 (CCK8, OD450): 0.059 µg/mL
[2]
  IC50: 0.474 µg/mL
[3]
  EC50: 0.286 µg/mL

B4: IL-4R single-domain antibody Nb103 (VHH)
VHH: QVQLQESGGGSVQAGGSLRVSCAASGSTSYRYCMAWFRQAPGKEREAVASIRPRSGRAYYADSVKGRFTISLDNAKNTLYLQMNSLKPEDTAMYYCAASDNDGNCQDYWGKGTQVTVSS
notes: also called candidate single-domain antibody Nb103; IL-4Ra Nb103 antibody; not shown: tag(s) from the pMECS phage vector
[4]
  inhibition of TF-1 cell proliferation induced by IL-4 (CCK8, OD450): 0.149 µg/mL
  inhibition of TF-1 cell proliferation induced by IL-13 (CCK8, OD450): 0.066 µg/mL
[1]
  IC50: 0.274 µg/mL
[5]
  binding result: no binding
[6]
  binding result: no binding (tested: 2 ug/mL antibody)
[7]
  binding result: no binding (tested: 2 ug/mL antibody)
